Reference: patent US20260207715A1, “KIT FOR COMBINATION THERAPY OF TUMOR DISEASES AND/OR INFECTIONS” (priority 2022, published 2026)
“Also recorded” adds a separate entry of the source.

B1: APIT: FAD-binding L-amino acid oxidase from Aplysia punctata, SEQ ID NO. 1 (protein, listed as Aplysia punctata)
chain: MDGVSRNRRQCNREVCGSTYDVAVVGAGPGGANSAYMLRDSGLDIAVFEYSDRVGGRLFTYQLPNTPDVNLEIGGMRFIEGAMHRLWRVISELGLTPKVFKEGFGKEGRQRFYLRGQSLTKKQVKSGDVPYDLSPEEKENQGNLVEYYLEKLTGLQLNGEPLKREVALKLTVPDGRFLYDLSFDEAMDLVASPEGKEFTRDTHVFTGEVTLDASAVSLFDDHLGEDYYGSEIYTLKEGLSSVPQGLLQAFLDAADSNEFYPNSHLKALRRKTNGQYVLYFEPTTSKDGQTTINYLEPLQVVCAQRVILAMPVYALNQLDWNQLRNDRATQAYAAVRPIPASKVFMTFDQPWWLENERKSWVTKSDALFSQMYDWQKSEASGDYILIASYADGLKAQYLRELKNQGEDIPGSDPGYNQVTEPLKDTILDHLTEAYGVERDSIPEPVTAASQFWTDYPFGCGWITWRAGFHFDDVISTMRRPSLKDEVYVVGADYSWGLISSWIEGALETSENVINDYFL
modifications: FAD cofactor

Key:
[1] = tested on: ROS (H2O2) production; test: Enzymatic activity, production of ROS (H2O2), spectrofluorimetric experimental setup; assay type: biochemical; details: for enzymatically active: fusion protein; for enzymatic activity, production of ROS (H2O2): spectrofluorimetric experimental setup
From the text: The proteins APIT, the fusion protein zHER2:342-APIT and zHER2:342(K4R/K7A/K27R/K49R/K50A/K58A)-APIT were successfully recombinantly produced and purified. The proteins were verified for identity and purity by mass spectrometry and high-performance liquid chromatography (HPLC) (see FIGS. 3 and 4). Subsequently, both proteins were compared with respect to their enzymatic activity, in particular the production of ROS (H2O2) via a spectrofluorimetric experimental setup. The activity of both species is very similar: • APIT: 80 U/mg, • zHER2:342-APIT: 70 U/mg, • zHER2:342(K4R/K7A/K27R/K49R/K50A/K58A)-APIT: 70 U/mg.

[2] = target: T1, HER2 receptor on HER2-positive cells (BT474 cell line) (Homo sapiens, UniProt P04626); test: Cell-based HER-2 binding assay on fixed HER2-positive cells; details: fluorescent dye labeled protein
T1 construct: host or cells: BT-474 (HER2-positive breast cancer cell line), fixed with 4% paraformaldehyde
From the text: (§1) Shown are results of cell culture experiments to confirm the selective HER2 binding of the fusion proteins. The fusion proteins zHER2:342-APIT and zHER2:342(K4R/K7A/K27R/K49R/K50A/K58A)-APIT were labeled with fluorescent dye and probed for HER2 binding on fixed cells. Cell nuclei were stained with Hoechst33342.
Left panels: HER2-positive cells (BT474 cell line). Here, the fluorescent dye labeled fusion proteins bind to the HER2 receptor located on the cell membrane.
(§2) HER2 positive BT-474 (ACC 64), adherent cells were cultured in RPMI 1640 containing 20% (v/v) FBS, MEM non-essential amino acids, 1 mM Pyruvate, 10 μg/ml human insulin. HER2-negative MDA-MB-231 (ACC 732) adherent cells were cultured in Leibowitz' L15, 20% FBS. Cells were cultured from frozen stocks and passaged two times prior to the assay. Cells were incubated at 37° C., 5% CO2 humidified. At a confluency of 80% cell passaging was performed by trypsination using 0.25% (w/v) trypsin/0.2% (w/v) EDTA. Cells were seeded at 10 k cells/well on sterilized degreased 4%-gelatin coated cover slides ([…]) in 24-well plates and grown over night in the incubator. Cells were washed with PBS and fixated with freshly made 4% (w/v) paraformaldehyde solution for 30 min. […] Fluorescence signal was imaged using a ZEISS motorized Axio ZI observer fluorescence microscope. Images were analyzed and processed using Zeiss Zen Pro software.

[3] = tested on: HER2-negative cells (MDA-MB-231); test: Cell-based HER-2 binding assay on fixed HER2-negative cells (negative control); details: MDA-MB-231, fixed cells, fluorescent dye labeled protein
Method: as §1
Right panels: HER2-negative cells (MDA-MB-231).
as §2

[4] = tested on: HER2-positive tumor; test: Tumor targeting and biodistribution in mice with HER2-positive and HER2-negative tumor; assay type: in vivo; details: six hours after exposure, NIR-labelled protein
Method: Tumor targeting and biodistribution of (A) zHER2-APIT-NIR and (B) APIT-NIR in mice with HER2-negative tumor (black) and HER2-positive tumor (gray); (whiskers indicate 10-90% percentile values, line in the box is the median; significance was tested with the Mann-Whitney U test, *p<0.05 was considered statistically different; n.s.=not significant; n=6).
Labelling of 1 eq protein was performed with either 6 eq of AlexaFluor680™-maleimide (NIR) or 10 eq of TexasRed-maleimide in PBS containing 50 mM TCEP pH 7.4 at a protein concentration of 1.0 mg/mL overnight. Reaction mixture was purified via HiTrap Q HP using 50 mM Tris pH 8.0 (A) and 50 mM Tris 1 M NaCl pH 8.0 (B) with following method: 30% B for 45 CV, 30-100% B in 30 CV. The eluent was dialyzed in PBS. The degree of label (DOL) was determined according to the manufacturer's instructions using extinctions coefficient of 1.539 mLmg-1 cm-1 for APIT.

[5] = tested on: NIH3T3 cells spheroids; test: Spheroid formation of NIH3T3 cells, propidium iodide staining; assay type: cell-based, murine; details: 24 hours
Method: In this example, immortalized murine fibroblast NIH3T3 cells were specifically chosen for generating spheroids due to their ability to produce a consistently uniform, rounded, and tightly cohesive structure. […] To achieve this, NIH3T3 cells (150,000 cells/mL) were seeded on non-tissue culture treated petri dish coverslips in 10 μL drops. Subsequently, they were treated with camptothecin and compound 4, the latter being activated both with and without H2O2, and were incubated upside down for 24 hours at 37° C. under 5% CO2. Following the incubation period, the spheroids were stained with propidium iodide (0.003 μg per 10,000 cells) for 3 minutes at room temperature. The analysis of these spheroids was conducted using an Axio Observer.Z1 microscope equipped with an A-Plan 10×/0.25 Ph1 objective (Zeiss). The images were recorded with a phase-contrast channel, and a 43 DsRed Reflector (λex=538-562 nm λem=570-640 nm) with a mercury vapor short-arc lamp.

| Molecule | enzymatically active [1] | enzymatic activity, production of ROS (H2O2) [1] | binding to HER2-positive cells [2] | binding to HER2-negative cells [3] | levels in HER2-positive xenografts compared to HER2-negative tissues [4] | effect on spheroids [5] |
| --- | --- | --- | --- | --- | --- | --- |
| zHER2:342-APIT: fusion protein of targeting sequence zHER2:342 and APIT, SEQ ID NO. 4 | remain enzymatically active | 70 U/mg | bind to HER2-positive; also recorded: confirmed | not HER2-negative cells | – | – |
| zHER2-APIT: APIT fused with the zHER2 affibody, AlexaFluor680 (NIR) labelled for biodistribution | – | – | – | – | Significantly higher levels | – |
| CC[C@@]1(O)C(=O)OCc2c1cc1n(c2=O)Cc2cc3ccccc3nc2-1 [camptothecin] | – | – | – | – | – | disintegration of spheroids |
| zHER2:342(K4R/K7A/K27R/K49R/K50A/K58A)-APIT: fusion protein of lysine-deleted zHER2:342 mutant and APIT, SEQ ID NO. 5 | enzymatically active | 70 U/mg | bind to HER2 positive; also recorded: confirmed | not HER2 negative cells | – | – |
| B1 | – | 80 U/mg | – | – | did not show differences | – |
